Laboratory results from patent CN111253487A (GUANGDONG HEC PHARMACEUTICAL, dated 2020).
Each block holds one binder with its values, some of them ahead of it.

Legend:
表达在肿瘤细胞NALM-6表面的CD19 [1] = target: T1, 表达在肿瘤细胞NALM-6表面的CD19 (UniProt P15391 20-556, limits assumed); test: flow cytometry of scFv on NALM-6 cells, PE goat anti-human secondary
T1 construct: whole, on cells; also called CD19阳性细胞; NALM-6细胞
T1 sequence (looked up): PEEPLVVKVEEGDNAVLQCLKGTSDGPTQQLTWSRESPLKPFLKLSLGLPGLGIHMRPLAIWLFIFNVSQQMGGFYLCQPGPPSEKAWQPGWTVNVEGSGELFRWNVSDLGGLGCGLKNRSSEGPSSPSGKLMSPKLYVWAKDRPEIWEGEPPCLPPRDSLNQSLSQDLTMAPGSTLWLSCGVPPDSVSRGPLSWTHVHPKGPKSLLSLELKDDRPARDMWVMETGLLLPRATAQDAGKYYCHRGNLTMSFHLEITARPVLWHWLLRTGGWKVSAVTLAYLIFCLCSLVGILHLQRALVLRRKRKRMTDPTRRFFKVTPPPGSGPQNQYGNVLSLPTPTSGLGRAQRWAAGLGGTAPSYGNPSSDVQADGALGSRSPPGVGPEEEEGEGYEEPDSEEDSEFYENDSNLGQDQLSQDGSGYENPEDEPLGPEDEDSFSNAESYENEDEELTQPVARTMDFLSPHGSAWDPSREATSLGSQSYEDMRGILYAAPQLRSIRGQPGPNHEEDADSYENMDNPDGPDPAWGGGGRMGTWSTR

表达在肿瘤细胞NALM-6表面的CD19 [2] = target: T1, 表达在肿瘤细胞NALM-6表面的CD19; test: flow cytometry on NALM-6 cells, FITC goat anti-mouse secondary
CD19蛋白 (购自acro) = target: T2, CD19蛋白 (购自acro) (UniProt P15391 20-291); test: ELISA, CD19 protein coated, antibody in twofold dilutions from 0.1mg/mL, OD450
T2 construct: also called 重组CD19蛋白 (ACRO, CD9-H52H2)
T2 sequence (looked up): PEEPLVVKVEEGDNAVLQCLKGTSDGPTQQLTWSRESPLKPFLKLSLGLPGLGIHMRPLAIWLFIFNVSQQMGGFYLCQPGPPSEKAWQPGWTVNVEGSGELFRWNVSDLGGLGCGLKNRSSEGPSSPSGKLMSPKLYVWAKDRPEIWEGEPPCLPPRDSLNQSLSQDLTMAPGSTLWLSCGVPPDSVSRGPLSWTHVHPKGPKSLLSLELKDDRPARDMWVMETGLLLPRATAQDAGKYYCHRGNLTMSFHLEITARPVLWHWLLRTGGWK

[3] = target: T3, CD19胞外区蛋白 (abcam, ab234966, 氨基酸序列编号第20位至291位) (UniProt P15391 20-291); test: western blot on reduced, denatured CD19 extracellular domain, antibody at 20μg/mL
T3 construct: range 20-291; also called 变性的CD19重组蛋白; CD19重组蛋白
T3 sequence (looked up): T2 sequence (looked up)

binding result (表达在肿瘤细胞NALM-6表面的CD19 [1]): binds
B1: 10H10-1 scFv (单链抗体10H10-1) (scFv)
scFv: DIVMTQTPLSLPVSLGDQVSISCRSSQTLVYSNGDTYLEWYLQKPGQSPKLLIYKLSNRFSGVPDRFSGSGSGTDFTLKISRVESEDLGVYYCFQGSYFPFTFGAGTKLEIKGGGGSGGGGSGGGGSEVQLQQSGAELVRPGTSVKVSCKASGYAFTNYFIEWVIQRPGQGLEWIGVINPGNSNTNYNEKFKGKATLTADKSSSTAYMQLSSLTSDDSAVYFCARSGTTATTYAMDYWGQGTSVIVSS
notes: It was detected with PE-labelled goat anti-human antibody, and no tag or Fc is stated; also called CD19 scfv抗体 10H10-1

binding result (表达在肿瘤细胞NALM-6表面的CD19 [2]): binds
binding result (CD19蛋白 (购自acro)): binds
binding result [3]: binds
B2: 抗CD19鼠源抗体 10H10-1 (antibody, V domains shown)
VH: EVQLQQSGAELVRPGTSVKVSCKASGYAFTNYFIEWVIQRPGQGLEWIGVINPGNSNTNYNEKFKGKATLTADKSSSTAYMQLSSLTSDDSAVYFCARSGTTATTYAMDYWGQGTSVIVSS
VL: DIVMTQTPLSLPVSLGDQVSISCRSSQTLVYSNGDTYLEWYLQKPGQSPKLLIYKLSNRFSGVPDRFSGSGSGTDFTLKISRVESEDLGVYYCFQGSYFPFTFGAGTKLEIK
notes: Murine anti-CD19 antibody from a hybridoma
